Results taken from patent publication US20210315933A1 (TCR2 THERAPEUTICS, published 2021).
Like-named read-outs stand apart in the source and are kept apart here.

T1: human IL13Rα2 on cells (human, UniProt Q14627 27-380)
T1 construct: whole, on cells; also called hIL13Rα2
T1 sequence (looked up): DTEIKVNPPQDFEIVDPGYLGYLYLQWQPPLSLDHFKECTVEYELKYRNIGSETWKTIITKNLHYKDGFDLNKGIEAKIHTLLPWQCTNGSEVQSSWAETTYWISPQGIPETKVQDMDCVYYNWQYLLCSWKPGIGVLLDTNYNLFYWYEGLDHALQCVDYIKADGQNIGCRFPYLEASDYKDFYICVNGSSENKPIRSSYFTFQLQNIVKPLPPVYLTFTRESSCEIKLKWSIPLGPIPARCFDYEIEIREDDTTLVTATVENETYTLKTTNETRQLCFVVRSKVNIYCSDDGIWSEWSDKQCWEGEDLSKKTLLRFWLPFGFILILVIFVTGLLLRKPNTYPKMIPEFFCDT

T2: recombinant human IL13Rα2 fused to an Fc domain of human IgG1 (hIL13Rα2-Fc) (human, UniProt Q14627 27-343, limits assumed)
T2 construct: Bought construct (R&D Systems); The Fc can be removed by Factor Xa, so a Factor Xa site lies between the parts; not shown: Fc domain of human IgG1
T2 sequence (looked up): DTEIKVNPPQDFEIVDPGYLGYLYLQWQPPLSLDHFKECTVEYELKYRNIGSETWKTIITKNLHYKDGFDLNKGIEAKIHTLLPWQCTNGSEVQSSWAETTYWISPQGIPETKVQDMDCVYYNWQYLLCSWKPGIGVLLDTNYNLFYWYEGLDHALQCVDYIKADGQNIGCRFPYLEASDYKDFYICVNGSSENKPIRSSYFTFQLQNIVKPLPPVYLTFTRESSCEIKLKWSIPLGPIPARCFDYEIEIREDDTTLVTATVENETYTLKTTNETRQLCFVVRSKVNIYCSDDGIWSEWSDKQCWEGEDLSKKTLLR

T3: Human MUC16 polypeptide (MUC16 ectodomain peptide) (human)
T3 construct: Analyte of the Octet titration and antigen of the binning assay; also called MUC16 peptide; MUC16^ecto peptide
T3 peptide: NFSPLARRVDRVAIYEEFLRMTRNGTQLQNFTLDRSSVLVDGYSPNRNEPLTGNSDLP

B1: anti-IL13Rα2 Clone 2 humanized variant 2-h6 (VHH)
VHH: EVQLVESGGGLVQPGGSLRLSCAASGFASDDYIMGWFRQAPGKGLEGVSCISSRYANTVYADSVKGRFTISRDNAKNTLYLQMNSLRPEDTAVYYCAMDSRRVTCPEISTMHRNFDSWGQGTQVTVSS
B2: Humanized Llama Single domain anti-IL13Rα2 Clone 1-h8 (H1-LSD1) (VHH)
VHH: EVQLVESGGGLVQPGGSLRLSCAASGFTSDYYIMGWFRQAPGKGLEGVSCISSKYANTYYADSVKGRFTISRDNAKNTLYLQMNSLRPEDTAVYYCAADTRRYTCPDIATMHRNFDSWGQGTLVTVSS
notes: Captured on a Ni-NTA sensor, so a His tag is implied; the tag is not described
B3: Humanized Llama single domain anti-IL13Rα2 Clone 1-h10 (H2-LSD1) (VHH)
VHH: EVQLVESGGGLVQPGGSLRLSCAASGFTSDYYIMGWVRQAPGKGLEWVSCISSKYANTYYADSVKGRFTISRDNAKNTLYLQMNSLRPEDTAVYYCAADTRRYTCPDIATMHRNFDSWGQGTLVTVSS
notes: as for B2
B4: Humanized Llama Single domain anti-IL13Rα2 Clone 2-h8 (H1-LSD2) (VHH)
VHH: EVQLVESGGGLVQPGGSLRLSCAASGFASDDYIMGWFRQAPGKGLEGVSCISSRYANTYYADSVKGRFTISRDNAKNTLYLQMNSLRPEDTAVYYCAMDSRRVTCPEISTMHRNFDSWGQGTLVTVSS
notes: as for B2
B5: anti-IL13Rα2 Clone 1 humanized variant 1-h9 (VHH)
VHH: EVQLVESGGGLVQPGGSLRLSCAASGFTSDYYIMGWFRQAPGKGLEWVSCISSKYANTYYADSVKGRFTISRDNAKNTLYLQMNSLRPEDTAVYYCAADTRRYTCPDIATMHRNFDSWGQGTLVTVSS
B6: Humanized Llama single domain anti-IL13Rα2 Clone 2-h10 (H2-LSD2) (VHH)
VHH: EVQLVESGGGLVQPGGSLRLSCAASGFASDDYIMGWVRQAPGKGLEWVSCISSRYANTYYADSVKGRFTISRDNAKNTLYLQMNSLRPEDTAVYYCAMDSRRVTCPEISTMHRNFDSWGQGTLVTVSS
notes: as for B2
B7: Llama single domain anti-IL13Rα2 Clone 2 (LSD2) (VHH)
VHH: DVQLVESGGGLVQPGGSLRLSCEASGFASDDYIIGWFRQAPGKEREGVSCISSRYANTVYTDSVKGRFRISRGTAKNTVYLQMSALKPEDTAVYYCAMDSRRVTCPEISTMHRNFDSWGQGTQVTVSS
notes: Captured on a Ni-NTA sensor, so a His tag is implied; the tag is not described; also called 2-parental; clone 2 parental
B8: anti-IL13Rα2 Clone 2 humanized variant 2-h3 (VHH)
VHH: EVQLVESGGGLVQPGGSLRLSCAASGFASDDYIMGWFRQAPGKGLEGVSCISSRYANTVYADSVKGRFTISRGNAKNTVYLQMSSLRPEDTAVYYCAMDSRRVTCPEISTMHRNFDSWGQGTQVTVSS
B9: anti-IL13Rα2 Clone 2 humanized variant 2-h1 (VHH)
VHH: EVQLVESGGGLVQPGGSLRLSCAASGFASDDYIMGWFRQAPGKGLEGVSCISSRYANTVYADSVKGRFRISRGNAKNTVYLQMSALRPEDTAVYYCAMDSRRVTCPEISTMHRNFDSWGQGTQVTVSS
B10: anti-IL13Rα2 Clone 2 humanized variant 2-h5 (VHH)
VHH: EVQLVESGGGLVQPGGSLRLSCAASGFASDDYIMGWFRQAPGKGLEGVSCISSRYANTVYADSVKGRFTISRDNAKNTVYLQMNSLRPEDTAVYYCAMDSRRVTCPEISTMHRNFDSWGQGTQVTVSS
B11: anti-IL13Rα2 Clone 2 humanized variant 2-h4 (VHH)
VHH: EVQLVESGGGLVQPGGSLRLSCAASGFASDDYIMGWFRQAPGKGLEGVSCISSRYANTVYADSVKGRFTISRGNAKNTVYLQMNSLRPEDTAVYYCAMDSRRVTCPEISTMHRNFDSWGQGTQVTVSS
B12: single domain anti-MUC16 binder R3MU4 (VHH)
VHH: QVQLQESGGGLVQAGGSLRLSCAASGRTVSSLFMGWFRQAPGKERELVAAISRYSLYTYYADSVKGRFTISADNAKNAVYLQMNSLKPEDTAVYYCASKLEYTSNDYDSWGQGTQVTVSS
notes: also called Parental R3Mu4; parental (llama) R3Mu4; not shown: C-terminal tags (pMECS GG: HA tag and His6 tag; His-tagged in the Octet assay)
B13: R3MU29h13 (96.7% human) (VHH)
VHH: EVQLVESGGGLVQPGGSLRLSCAASGRAVSSLFMGWFRQAPGKGLELVSAISRYSLYTYYADSVKGRFTISRDNAKNTLYLQMNSLRPEDTAVYYCASKLEYTSNDYDSWGQGTLVTVSS
notes: also called R3Mu29_h13#11; not shown: His tag (His-tagged MUC16 sdAbs)
B14: Single domain anti-MUC16 R3MU29 (VHH)
VHH: QVQLQESGGGLVQAGDSLRLSCAASGRAVSSLFMGWFRRAPGKERELVAAISRYSLYTYYADSVKGRFTISADNAKNAVYLQMNSLKPEDTAVYYCASKLEYTSNDYDSWGQGTQVTVSS
notes: also called Parental R3Mu29; parental (llama) R3Mu29; not shown: C-terminal tags (pMECS GG: HA tag and His6 tag; His-tagged in the Octet assay)
B15: R3MU4h12 (97.8% human) (VHH)
VHH: EVQLVESGGGLVQPGGSLRLSCAASGRTVSSLFMGWFRQAPGKGLEWVSAISRYSLYTYYADSVKGRFTISRDNAKNTLYLQMNSLRPEDTAVYYCASKLEYTSNDYDSWGQGTLVTVSS
notes: also called R3Mu4 h12#2; not shown: His tag (His-tagged MUC16 sdAbs)
B16: R3MU4h11 (96.7% human) (VHH)
VHH: EVQLVESGGGLVQPGGSLRLSCAASGRTVSSLFMGWFRQAPGKGLELVSAISRYSLYTYYADSVKGRFTISRDNAKNTLYLQMNSLRPEDTAVYYCASKLEYTSNDYDSWGQGTLVTVSS
notes: also called R3Mu4 h11#2; not shown: His tag (His-tagged MUC16 sdAbs)
B17: Llama single domain anti-IL13Rα2 Clone 1 (LSD1) (VHH)
VHH: DVQLVESGGGLVQPGGSLRLSCAASGFTSDYYIIGWFRQAPGKEREGVSCISSKYANTNYADSVKGRFTQSRGAAKNTVYLQMNALKPEDTAVYYCAADTRRYTCPDIATMHRNFDSWGQGTQVTVSS
notes: Captured on a Ni-NTA sensor in the Octet assay, so a His tag is implied; the tag is not described for this construct; also called parental; clone 1 parental
B18: R3MU4h13 (98.9% human) (VHH)
VHH: EVQLVESGGGLVQPGGSLRLSCAASGRTVSSLFMGWVRQAPGKGLEWVSAISRYSLYTYYADSVKGRFTISRDNAKNTLYLQMNSLRPEDTAVYYCASKLEYTSNDYDSWGQGTLVTVSS
notes: not shown: His tag (His-tagged MUC16 sdAbs)
B19: R3MU29h15 (98.9% human) (VHH)
VHH: EVQLVESGGGLVQPGGSLRLSCAASGRAVSSLFMGWVRQAPGKGLEWVSAISRYSLYTYYADSVKGRFTISRDNAKNTLYLQMNSLRPEDTAVYYCASKLEYTSNDYDSWGQGTLVTVSS
notes: also called R3Mu29_h15#16; not shown: His tag (His-tagged MUC16 sdAbs)
B20: R3MU29h14 (97.8% human) (VHH)
VHH: EVQLVESGGGLVQPGGSLRLSCAASGRAVSSLFMGWFRQAPGKGLEWVSAISRYSLYTYYADSVKGRFTISRDNAKNTLYLQMNSLRPEDTAVYYCASKLEYTSNDYDSWGQGTLVTVSS
notes: also called R3Mu29_h14#13; not shown: His tag (His-tagged MUC16 sdAbs)

Columns and labels:
human IL13Rα2 on cells [1] = molecular target: T1, human IL13Rα2 on cells; assay: flow cytometry; cell line not stated
[2] = molecular target: T2, recombinant human IL13Rα2 fused to an …; assay: Octet KD relative to clone 2 parental
Protocol: (§1) Two clones were chosen for humanization. […] Each humanized nanobody was analyzed by Octet at 500 nM on an Ni-NTA sensor, with three fold dilutions of antigen (IL13Rα2-Fc) at 125 nM, 41.66 nM, and 13.86 nM. A summary of the octed measurements for each of the humanized variants depicted in FIG. 1 is shown in Table 1 (clone 1) and Table 2 (clone 2).

[3] = molecular target: T2, recombinant human IL13Rα2 fused to an …; assay: Octet (BLI); nanobody on Ni-NTA sensor, IL13Rα2-Fc in solution
Protocol: as §1

human IL13Rα2 on cells [4] = molecular target: T1, human IL13Rα2 on cells; assay: flow cytometry; cell line not stated; remark: listed apart in the source
[5] = molecular target: T2, recombinant human IL13Rα2 fused to an …; assay: Octet KD relative to clone 1 parental
Protocol: as §1

[6] = molecular target: T3, Human MUC16 polypeptide (MUC16 …); assay: Octet (BLI), NTA biosensor; His-tagged sdAb on sensor, MUC16 peptide titrated; 1:1 global fit
Protocol: FIGS. 5A-C show titration and measurement of binding affinity of parental (llama) and humanized anti-MUC16 single chain antibody (VHH). FIG. 5A is a diagram illustrating the experimental procedure by which the VHH binders produced in Example 5 are screened using an NTA biosensor (nickel coated surface). The His-tagged MUC16 sdAbs (3.25 μg/ml) are bound to the biosensor, and the MUC16 peptide is added at concentrations of 0, 1.56, 6.25, 25, 50, 100 or 200 nM. Buffer: 1× Octet; 1× Corning® Cellgro® PBS (cat. 21-040-CM) containing 0.02% Tween® 20 at 30° C. Sensors: Pall Forte Bio Dip & Read (cat. 18-5102). FIG. 5B (clone R3Mu4 parental and humanized variants) and FIG. 5C (clone R3Mu29 parental and humanized variants) show binding kinetics of the sdAbs to the MUC16 target (see also Table 1). These curves were used to derive binding affinity constant for each protein and to assess the effect of humanization on antigen binding.
The VHH binders produced in Example 5 are screened using an NTA biosensor (nickel column, see FIG. 5A for a drawing outlining the method). The His-tagged MUC16 sdAbs (3.25 μg/ml) are bound to the column, and then the MUC16 peptide is passed through the column at concentrations of 200, 100, 50, 25, 6.25, 1.56, and 0 nM. Buffer: 1× Corning® Cellgro® PBS pH 7.4 (cat. 21-040-CM) containing 0.02% Tween® 20) at 30° C. Sensors: Pall Forte Bio Dip & Read (cat. 18-5102).

| Binder | Flow Cytometry MFI (human IL13Rα2 on cells [1]) | KD fold difference [2] | Kd [3] | Flow Cytometry MFI (human IL13Rα2 on cells [4]) | KD fold difference [5] | Kd [6] |
| --- | --- | --- | --- | --- | --- | --- |
| B1 | 2870 MFI | 1.4 fold | 1130 nM |  |  |  |
| B2 |  |  | 1.94 nM | 1240 MFI | 3.1 fold |  |
| B3 |  |  | 1.46 nM | 639 MFI | 2.3 fold |  |
| B4 | 2020 MFI | 1.2 fold | 950 nM |  |  |  |
| B5 |  |  | 1.91 nM | 842 MFI | 3 fold |  |
| B6 | 1120 MFI | 4.1 fold | 3310 nM |  |  |  |
| B7 | 3650 MFI | 1 fold | 810 nM |  |  |  |
| B8 | 3070 MFI | 1.1 fold | 910 nM |  |  |  |
| B9 |  | 1.1 fold | 930 nM |  |  |  |
| B10 | 1450 MFI | 1.1 fold | 870 nM |  |  |  |
| B11 | 3060 MFI | 1.2 fold | 960 nM |  |  |  |
| B12 |  |  |  |  |  | 10.2 nM |
| B13 |  |  |  |  |  | 8.3 nM |
| B14 |  |  |  |  |  | 6.3 nM |
| B15 |  |  |  |  |  | 94.6 nM |
| B16 |  |  |  |  |  | 10.9 nM |
| B17 |  |  | 0.63 nM | 2270 MFI | 1 fold |  |
| B18 |  |  |  |  |  | 36.2 nM |
| B19 |  |  |  |  |  | 22.9 nM |
| B20 |  |  |  |  |  | 36.4 nM |
